B1: 6D12B10: rat monoclonal antibody against the β6/β7 loop of SOD1, raised with KLH-conjugated SE-21 peptide (antibody, V domains shown)
VH: QIQLVQSGPELKKPGESVSISCKASGYTFTDSAIHWVKQAPGKGLKYMGWINTYTGKPTYADDFKGRFVFSLEASASTAKLQISNLKSEDTATFFCARSVYSYDGTFYRYFLDAWGQGASVTVSS
VL: DTVLTQSPALAVSPGEKVTISCRASESVSKHIHWFQQKSGQQPTLLIYLASSLESGVPARFSGSGSGTDFTLTIDPVEADDTATYYCQQSWNDPWTFGGGTKLELK
B2: scFv-Ab: single-chain fragment variable antibody: heavy and light chain variable regions of the anti-β6/β7-loop mAb joined by a flexible linker (protein)
scFv: QIQLVQSGPELKKPGESVSISCKASGYTFTDSAIHWVKQAPGKGLKYMGWINTYTGKPTYADDFKGRFVFSLEASASTAKLQISNLKSEDTATFFCARSVYSYDGTFYRYFLDAWGQGASVTVSSGGGGSGGGGSGGGGSDTVLTQSPALAVSPGEKVTISCRASESVSKHIHWFQQKSGQQPTLLIYLASSLESGVPARFSGSGSGTDFTLTIDPVEADDTATYYCQQSWNDPWTFGGGTKLELKGGGGS
modifications: left off: small tags and cut ends
notes: single-chain fragment variable antibody: heavy and light chain variable regions of the anti-β6/β7-loop mAb joined by a flexible linker

Columns and labels:
Type in all cases: binding
[1] = system: misfolded familial ALS (fALS) mutants of SOD1 (SOD1^G93A and SOD1^G85R); experiment: ELISA of hybridoma supernatants with SOD1 variants as coating antigens; conditions: FIG. 1B, SOD1^G93A and SOD1^G85R vs intact SOD1^WT
Description: (§1) FIGS. 1A-1B are an image and a graph showing (1A) the surface pocket shaped by the two β6/β7 loops (arrows) in the intact SOD1^WT dimer, and (1B) the results of enzyme linked immunosorbent assay (ELISA) of supernatants of several hybridoma clones expressing anti-β6/β7-loop monoclonal antibody (mAb) using SOD1 variants as coating antigens. NC—negative control. WT—wild type; apo—WT in the absence of metals (Cu^2+ and Zn^2+); holo—WT in the presence of metals (Cu^2+ and Zn^2+); G93A—Glycine at position 93 was substituted to Alanine; G85R—Glycine at position 85 was substituted to Arginine; antigen peptide—peptide used to produce the disclosed mAb.
(§2) The loss of stabilizing metals, especially Zn^2+ is considered as the primary event which triggers the noxious structural transformation of SOD1, ultimately resulting in amyloid aggregation. Therefore, it is possible that the exposure of the β6/β7 loop epitope represents an early manifestation of the SOD1 noxious misfolding, and it is a common feature for both SOD1^WT and fALS SOD1^MUT. This early β6/β7 loop epitope is fundamentally different from the late epitopes of misfolded SOD1 such as those exposed on the dimer interface upon SOD1 monomerization; they correspond to the advanced stages of SOD1 misfolding and are apparently irreversible.

apo-SOD1^WT = apo-SOD1^WT (Homo sapiens, UniProt P00441); experiment: as above; conditions: WT in the absence of Cu2+ and Zn2+, similar to SOD1^G93A and SOD1^G85R
apo-SOD1^WT, sequence (P00441 2-154 limits assumed): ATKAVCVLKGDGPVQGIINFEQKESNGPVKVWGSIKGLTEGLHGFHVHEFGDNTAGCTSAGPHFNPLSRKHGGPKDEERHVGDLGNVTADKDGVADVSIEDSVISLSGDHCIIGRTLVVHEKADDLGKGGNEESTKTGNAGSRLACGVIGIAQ
Description: as §1, §2

holo-SOD1^WT = holo-SOD1^WT (Homo sapiens, UniProt P00441); experiment: as above; conditions: apo-SOD1^WT saturated with Cu2+ and Zn2+ by dialysis
holo-SOD1^WT, sequence (P00441 2-154 limits assumed): as above
Description: as §1, §2

[2] = system: misfolded SOD1 variants (apo-SOD1^WT, holo-SOD1^WT, apo-SOD1^G93A, apo-SOD1^G85R); experiment: ELISA of secreted scFv-Ab (supernatant of transfected HEK 293 cells) on SOD1 variants; conditions: FIG. 2, HEK 293 supernatant, anti-c-myc detection
Description: Binding of secreted scFv-Ab (as supernatant of HEK 293 cells transfected with the vector expressing scFv-Ab) to SOD1 variant (apo-SOD1^WT, holo-SOD1^WT, apo-SOD1^G93A, and apo-SOD1^G85R), was quantified by enzyme-linked immunosorbent assay (ELISA).
The inventors have constructed a single-chain fragment variable antibody (scFv-mAb), representing a hybrid protein that comprises both heavy and light chain variable Ig regions of the anti-β6/β7-loop mAb connected by a short flexible linker (linker length 15-20 amino acids). The advantages of single-chain antibody are its small size, low immunogenicity and increased half-life (due to the reduced clearance via Fc-mediated microglia phagocytosis), and the ability to be used in a gene delivery system, such as recombinant adeno-associated virus, AAV6, for intra- or extracellular expression. AAV vectors have a broad cell type tropism, provide stable and safe gene expression and minimize immune response. […] Recent advances in AAV vector engineering enabled these vectors (AAV9) to be injected directly IV to obtain efficient CNS expression DNA sequences encoding the scFv-Ab of the invention were further optimized in terms of the codon usage for expression in mammalian cells (e.g., murine). […]

Molecule | discrimination between the intact SOD1^WT and misfolded fALS mutants of SOD1 [1] | recognition of metal-free apo-SOD1^WT (apo-SOD1^WT) | mAb binding to holo-SOD1^WT (holo-SOD1^WT) | binding of scFv-Ab to SOD1 variants [2]
B1 | complete discrimination | recognized metal-free apo-SOD1^WT as misfolded protein | completely abolished mAbs binding | 
B2 |  |  |  | selectively recognizes misfolded SOD1 variants
